Here are results for 6 molecules from patent publication US20220184177A1 (SAINT JOSEPH S UNIVERSITY, published 2022).

Where no end group is shown, it is not given here. The star is where a group is joined. Biotin = O=C1N[C@H]2[C@H](CS[C@H]2CCCCC(=O)*)N1

Sequences and labels used below:
B1: CAPER peptide HCC1.3 (amino acid residues 356-400) (peptide)
peptide: Biotin-RLQLMARLAEGTGLQIPPAAQQALQMSGSLAFGAVADLQTRLSQQ
notes: Custom synthesized (LifeTein), crude purity, N-terminal biotin; A TAT control peptide was run alongside, so the TAT form is possible
B2: CAPER peptide Scrambled (peptide)
peptide: Biotin-VGDALQGLRLFSTQASIGAQMEQLAAQPLRAGQMLQLAQASPLRT
notes: Control peptide; also called CAPER Scrambled Peptide; CAPER scrambled peptide
B3: TAT Control Peptide (peptide)
peptide: Biotin-YGRKKRRQRRR
notes: Control peptide; also called TAT only control
B4: His-tagged recombinant c-Jun (other, UniProt P05412 1-331, looked up)
chain: MTAKMETTFYDDALNASFLPSESGPYGYSNPKILKQSMTLNLADPVGSLKPHLRAKNSDLLTSPDVGLLKLASPELERLIIQSSNGHITTTPTPTQFLCPKNVTDEQEGFAEGFVRALAELHSQNTLPSVTSAAQPVNGAGMVAPAVASVAGGSGSGGFSASLHSEPPVYANLSNFNPGALSSGGGAPSYGAAGLAFPAQPQQQQQPPHHLPQQMPVQHPRLQALKEEPQTVPEMPGETPPLSPIDMESQERIKAERKRMRNRIAASKCRKRKLERIARLEEKVKTLKAQNSELASTANMLREQVAQLKQKVMNHVNSGCQLMLTQQLQTF
notes: Captured on BLI tips by an anti-his tag antibody; also called c-Jun receptor; c-Jun component of AP-1; not shown: his tag
B5: Recombinant Full-Length CAPER HCC1.3 (other)
chain: ADDIDIEAMLEAPYKKDENKLSSANGHEERSKKRKKSKSRSRSHERKRSKSKERKRSRDRERKKSKSRERKRSRSKERRRSRSRSRDRRFRGRYRSPYSGPKFNSAIRGKIGLPHSIKLSRRRSRSKSPFRKDKSPVREPIDNLTPEERDARTVFCMQLAARIRPRDLEEFFSTVGKVRDVRMISDRNSRRSKGIAYVEFVDVSSVPLAIGLTGQRVLGVPIIVQASQAEKNRAAAMANNLQKGSAGPMRLYVGSLHFNITEDMLRGIFEPFGRIESIQLMMDSETGRSKGYGFITFSDSECAKKALEQLNGFELAGRPMKVGHVTERTDASSASSFLDSDELERTGIDLGTTGRLQLMARLAEGTGLQIPPAAQQALQMSGSLAFGAVADLQTRLSQQTEASALAAAASVQPLATQCFQLSNMFNPQTEEEVGWDTEIKDDVIEECNKHGGVIHIYVDKNSAQGNVYVKCPSIAAAIAAVNALHGRWFAGKMITAAYVPLPTYHNLFPDSMTATQLLVPSRR
notes: Bought from R&D Systems; also called full-length recombinant CAPER; CAPER isoform HCC1.3
B6: CAPER peptide HCC1.4 (amino acid residues 356-400) (peptide)
peptide: Biotin-RLQLMARLAEGTGLQIPPAAQQALQMSGSLAFGAVAEFSFVIDLQ
notes: Custom synthesized (LifeTein), crude purity, N-terminal biotin

The target in one experiment is T1, Estrogen Receptor α (UniProt P03372 1-595, limits assumed).
T1 construct: also called ERα; ERa
T1 sequence (looked up): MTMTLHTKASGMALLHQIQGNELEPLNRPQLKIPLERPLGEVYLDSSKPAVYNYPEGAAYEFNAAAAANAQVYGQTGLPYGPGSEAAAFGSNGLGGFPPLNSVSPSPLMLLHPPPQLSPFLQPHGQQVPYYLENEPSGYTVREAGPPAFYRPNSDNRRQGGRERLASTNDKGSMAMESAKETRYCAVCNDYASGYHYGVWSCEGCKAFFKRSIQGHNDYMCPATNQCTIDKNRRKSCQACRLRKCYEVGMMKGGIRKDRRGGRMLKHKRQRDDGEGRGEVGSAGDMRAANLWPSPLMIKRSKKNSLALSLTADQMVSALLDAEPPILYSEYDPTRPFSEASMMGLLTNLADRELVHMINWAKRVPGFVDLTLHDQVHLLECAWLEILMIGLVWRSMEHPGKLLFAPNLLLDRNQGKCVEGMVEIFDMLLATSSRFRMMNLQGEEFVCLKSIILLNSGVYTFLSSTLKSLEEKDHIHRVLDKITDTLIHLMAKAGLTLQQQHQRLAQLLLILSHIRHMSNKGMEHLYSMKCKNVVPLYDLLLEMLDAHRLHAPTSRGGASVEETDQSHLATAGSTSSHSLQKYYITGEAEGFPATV
Description: binding kinetics on ERα (method not described, presumably BLI).

Experiment [1] deals with B4. As to the kind of experiment: BLI (Octet), his-tagged c-Jun captured by anti-his antibody, 1:1 model.
Experiment [2] has as its target B4. As to the kind of experiment: BLI (Octet), His-tagged c-Jun captured on anti-His tips, peptide in solution. In general terms: In BLI a coated tip is dipped into the sample, and binding shifts an interference pattern.
Experiment [3] concerns the target B4. Description: BLI, his-tagged c-Jun captured by anti-his antibody.
For experiment [4], the target named is B5. As to the kind of experiment: BLI (Octet), his-tagged c-Jun captured by anti-his antibody, 1:1 model.

In the experiment with Estrogen Receptor α, B1 yielded a Kd of 4.5 nM, a koff of 0.000115 s⁻¹ and an on-rate constant (kon) of 25400 M⁻¹ s⁻¹. In experiment [1], the Kd worked out at 8.89 nM, the off-rate constant (koff) was found to be 0.000337 s⁻¹ and the association rate constant (kon) is 37900 M⁻¹ s⁻¹.

As for B2, the binding result in experiment [2] is recorded as “no binding (tested: 1000 (no unit printed on the sheet))”.

For the molecule B3, the binding result in experiment [3] is reported as “no binding”.

B4: in experiment [4], the equilibrium dissociation constant (Kd) turned out to be 0.18 nM, the koff is 5.66e-05 s⁻¹ and the association rate constant (kon) was 312000 M⁻¹ s⁻¹.

In the experiment with Estrogen Receptor α, B5 came in with a Kd of 0.02 nM, a dissociation rate constant (koff) of 2.34e-05 s⁻¹ and an on-rate (kon) of 937000 M⁻¹ s⁻¹.

In the experiment with Estrogen Receptor α, B6 gave a Kd of 30.2 nM, a koff of 0.00172 s⁻¹ and a kon of 57100 M⁻¹ s⁻¹. Moreover, in experiment [1], the Kd is 25.6 nM, the koff came to 0.00098 s⁻¹ and the kon turned out to be 38300 M⁻¹ s⁻¹.

What is called Kd is the constant that tells how readily two partners part at equilibrium. One may read the koff as the rate constant with which the complex falls apart. One may read the kon as the second-order rate constant of association.
